In the supplement of paper PMC9170038:

System: MS2 coat protein
Test: apparent KD of MS2 coat protein; higher = weaker reporter binding
Conditions: Eterna round: R107
Summary of the method: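 Apparent KD stands for the median, per design, of fits to normalised cluster binding curves. The curves came from titrating on-chip-transcribed RNA switches on Illumina sequencing clusters with SNAP-549-labelled MS2 coat protein, twofold from 0.7 or 1.5 nM to 3 µM. Buffer was 100 mM Tris-HCl pH 7.5, 80 mM KCl, 4 mM MgCl2, without or with constant ligand.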

[1] = input ligand: theophylline 20 uM
[2] = input ligand: tryptophan 2.4 mM
[3] = input ligand: theophylline 2 mM

Row | Sequence | apparent KD of MS2 coat protein (input ligand: arginine 13.2 mM) | apparent KD of MS2 coat protein [1] | apparent KD of MS2 coat protein [2] | apparent KD of MS2 coat protein (input ligand: none) | apparent KD of MS2 coat protein [3]
1 | ACGGAGAUUGCUAAAUGUUGGCGAGCGGAUACCAGCCUAUUAUUGGGCCCUUGGCAGCCGACAUGAGGAUCACCCAUGUAAACAA [Berere] | 0.00936 µM | 0.0908 µM | 0.0767 µM |  | 
2 | GUAUGGAAACAUACUAGGGUAUCAUGAGAUACCAGUACAGAAAUGUACCCUUGGCAGCUCUAGCAUACAUGAGGAUCACCCAUGU [Ex Theophylline A 6] | 0.0154 µM | 0.02 µM | 0.012 µM |  | 
3 | AAUUGGCACUGAAGGAGCGAGUUUACCUAAAUAACAUGAGGAUCACCCAUGUAAAAUGGGACUCAGGUAGGUCGCAGUUGUCAAA [Same State Arginine B GF 22] | 0.048 µM | 0.0764 µM | 0.0615 µM | 0.0576 µM | 0.0637 µM
4 | GGAUAGGACACGGCCGCCACUAGCUAGGAUACUAGCAACAUUUCCUCAUAUGAGGAUCACCCAUAUAGGACCGGGUGUCCUAUCG | 0.215 µM | 0.389 µM | 1.14 µM | 0.376 µM | 0.471 µM
5 | AUACAUGAGGAUCACCCAUGUGAUGGCCGGCGAGGACCGGUACGGCCGCCACUCGUGAUCCGUCCUGAGAGCAAAGCCCUCAACA [Lequcele] | 0.0801 µM | 0.45 µM |  |  | 0.199 µM
6 | AUAACAUGAGGAUCACCCAUGUAUUGGUUACGAGGACCGGUACGGCCGCCACUCGUAUUAUAGUGGUAUUUUGUUUAUAUGAUAA [JR_Nu_TrtptoA_Sub019] | 0.0148 µM | 0.02 µM |  |  | 0.0184 µM
7 | CGCCACUCGAGUGAUCCUCACGAGUGGCUACGAGGACCGGUACGGCCGCCACUCGAAUUAACAUGAGGAUCACCCAUGUAAUCCA [Brourdmod09] | 0.0211 µM | 0.217 µM |  |  | 0.4 µM
8 | AUACAUGAGGAUCACCCAUGUGAUGGCCGGCGAGGACCGGUACGGCCGCCACUCGUGAUCCGUCCUGAGAGCAAAGCCCUCAGCA [Onedti] | 0.0173 µM | 0.287 µM |  |  | 0.237 µM
9 | ACAUGAAGAUUAAUCGUGGGCAUACUCGAUACCAGUAUUUUAACCUACCCUUGGCAGCGACAUGAGGAUCACCCAUGUGAGAUGA [XTheo A #8] | 0.0199 µM | 0.0235 µM | 0.0228 µM |  | 
10 | GAAAAUCCCGUACAUGAGGAUCACCCAUGUCGAGGACCGGUACGGCCGCCACUCGCACGCAUUGCAUUGGAGGGUCAGGUACGAG [Erenerrati] | 0.0269 µM | 0.0347 µM | 0.0755 µM | 0.0285 µM | 0.0292 µM
11 | AUACAUGAGGAUCACCCAUGUAUAGUUGAAGGAGCGACCAGAGGGUCAGGUAGGUCGCAACACAUGAGGAUCACCCAUGUAUCGA [DOUBLE!!! :-D #7] | 0.03 µM | 0.0529 µM | 0.0346 µM | 0.0499 µM | 0.0475 µM
12 | UCGCUCGCCGUAAGGCGAGCGAGUUGCGAUACCAGCCCGGAAACGGGCCCUUGGCAGCGCACAUGAGGAUCACCCAUGUCAUGUU [#1 Exclusion - Theophylline A Attempt #5 (HarryS)] | 0.0183 µM | 0.0351 µM | 0.0197 µM | 0.0195 µM | 0.0243 µM
13 | ACAUGAGCAUCAGCCUUGUAGGAACUAGAUACCAGCCCAACAUGAGGCCCUUGGCAGCUGACAACAUGAGGAUCACCCAUGUCAC [Exclusion - Theophylline A #1] | 0.0201 µM | 0.0363 µM | 0.0384 µM |  | 
14 | GUGUACAUGAGGAUCACCCAUGUCGAGUUACGAGGACCGGUACGGCCGCCACUCGGCGGCUCGACACGGAUAGCGAUGCGUUGCU [#18 Exclusion Tryptophan A] | 0.0246 µM | 0.0495 µM |  |  | 0.0441 µM
15 | GGACUAACCAGAAGGAGCGACACGCAGAAACUGCAAAUUCCUCUGCACGAGGAUCACCCGUGUCAGGUAGGUCGCUGGUUAGUCG | 0.0299 µM | 0.0355 µM | 0.0269 µM | 0.0274 µM | 0.0366 µM
16 | ACAUGAGGAUCACCCAUGUCUGCCACUGAUACCAGCGGAAGCCAACGCCCUUGGCAGCAGAACAUGAGGAUCACCCAUGUAGGCA [Same State Theophylline A GF26] | 0.0528 µM | 0.18 µM | 0.256 µM |  | 
17 | GGUACAUGAGGAUCACCCAUGUAUGCGAGCCGAGGACCGGUACGGCCGCCACUCGCUUAACAUGAGGAUCACCCAUGUUUCUCGG [SSTA DOUBLE!!! :-D #15] | 0.0909 µM | 0.157 µM | 0.108 µM | 0.0949 µM | 0.12 µM
18 | GCACUACAUGAGGAUCACCCAUGUGCAGAUACCAGAGGUGUAUGCCUCCCUUGGCAGCUGAGUAGCUCUGGAGGCCUAUUGGUUU [Same State Theophylline A GF15] | 0.0157 µM | 0.02 µM | 0.0168 µM |  | 
19 | ACACAUGAGGAUCACCCAUGUGCGCUGGAAGGAGCGCAGAAUCAUGCAGGUAGGUCGCCAGUGCCCUUCGAUAAAGGGAAAAGAG [Erbienes] | 0.0424 µM | 0.072 µM | 0.0691 µM | 0.0974 µM | 0.106 µM

Row | Sequence | apparent KD of MS2 coat protein (input ligand: arginine 13.2 mM) | apparent KD of MS2 coat protein [1] | apparent KD of MS2 coat protein [2] | apparent KD of MS2 coat protein (input ligand: none) | apparent KD of MS2 coat protein [3]
20 | AAAACAAACUCGGCCGCCACUCCCUCCCACCCAAGGACAUGAGGAUCACCCAUGUGGCAAAGCCCGAGGACCGGGAGAAACAAAA [Same State - Trytophan B] | 0.0181 µM | 0.0283 µM | 0.0203 µM | 0.0222 µM | 0.0264 µM
21 | GCACUACAUGAGGAUCACCCAUGUGCAGAUACCAGAGGUGUAUGCCUCCCUUGGCAGCUGCGUCGCUCUGGAAGCCUAUUGGUUU [Same State Theophylline A GF16] | 0.0158 µM | 0.0255 µM | 0.0184 µM |  | 
22 | UUACAUGAGGAUCACCCAUGUCAUAAUGAUACCAGAUAGUUAAUGAUCCCUUGGCAGCAUAAUACCUAGACAUUUAAGUCAUAGG [Aa] | 0.0595 µM | 0.08 µM | 0.0562 µM |  | 
23 | CUGACGGACUCGGCCGCCACUGAUAGUAGGACAUGAGGAUCACCCAUGUAAACGAACCUCAUAGCCAGGACCGGGAGUCACGAAG [Same State Tryptophan B GF 22] | 0.0564 µM | 0.189 µM | 0.0495 µM | 0.204 µM | 0.41 µM
24 | CGCAACAUGAGGAUCACCCAUGUAAUGACGCGAGGACCGGUACGGCCGCCACUCGCCUGCCAAUGAGCGCAUGCGGCCUGGGUAU [Exclusion Tryp A GF7] | 0.0119 µM | 0.0161 µM |  |  | 0.0135 µM
25 | AAUAGCAUGAGGAUCACCCAUGUAAAAGAUACCAGAGUGAUGAUCCUCCCUUGGCAGCUUAACGCUGAUUGAUUACAAUCAGCGA | 0.037 µM | 0.0978 µM | 0.0344 µM | 0.0449 µM | 0.229 µM
26 | UGACAUUGCUCAGAUACCAGACAUGAGGAUCACCCAUGUACCAAGAAAGUACAAUAAAAUGUCCCUUGGCAGCUGAGCAAUGUCU [TheoBX 8 #MS2Left #Theo2] | 0.0612 µM | 0.137 µM | 0.0669 µM |  | 
27 | GGAGUAGGAAACUAUUCCAAUCCUCGUGAACGAGGACCGGUACGGCCGCCACUCGAUAAAUAAAUACAUGAGGAUCACCCAUGUA [Ex Tryptophan A 22] | 0.02 µM | 0.0289 µM |  |  | 0.0341 µM
28 | GCUAGUGGCAGAAGGAGCGACAUUAAAAGUGGUCGAUACAUGAGGAUCACCCAUGUACUAUGUCAGGUAGGUCGCUGCCACUAGC [EAB NP+V+V2 #4 +-Same Structure] | 0.0278 µM | 0.0391 µM | 0.0307 µM | 0.0307 µM | 0.0366 µM
29 | AUUUACAUGGUCAUAUAUAUAUCGUCAGAUACCAGACGAGAUAUUGUCCCUUGGCAGCUGUUACAUGAGGAUCACCCAUGUAAUU [JR_Nu_ExcTheophyA_Sub021] | 0.041 µM | 0.0564 µM | 0.0647 µM |  | 
30 | GCGGUGGGUCAAAAGUAAUAGAAUUCUGAAGGAGCGUGAUGAAACACAGGUAGGUCGCAGGAACAUGAGGAUCACCCAUGUACGG [Same State Arginine A GF21] | 0.0344 µM | 0.049 µM | 0.0357 µM | 0.034 µM | 0.0375 µM
31 | UCAAUACAGUCGGCCGCCACUGUAACCAAACCUACAUACCAACAUGAGGAUCACCCAUGUUUAUACAGGACCGGGACCUCUAUGA [theeternabot_sameState_MS2_Trp_B_10] | 0.0326 µM | 0.0458 µM |  |  | 0.0464 µM
32 | AAGAAGUUUUGAUUUUUAUGAAGUAGUGAUACCAGUCAAGAAAGAGACCCUUGGCAGCGCAACAUGAGGAUCACCCAUGUAAGAA [A random design] | 0.0262 µM | 0.0267 µM | 0.0242 µM |  | 
33 | UAUCUACAUGAAUAGGUUAUUCGAUUAUUUCGAGGACCGGUACGGCCGCCACUCGUUAACAUAUACAUGAGGAUCACCCAUGUUA [JR_Nu_SSTryptoA_Sub024] | 0.016 µM | 0.0227 µM |  |  | 0.0215 µM
34 | CCCAAGCCAGCUGAUACCAGUGACGUGGUCAGAAUGUGCGACAUGAGGAUCACCCAUGUACACCCUUGGCAGCAGUAGAACGGUU [theeternabot_exclusion_MS2_Theo_B_47] | 0.0136 µM | 0.0189 µM | 0.0149 µM |  | 
35 | UGGGUAGCAUAGAUUGAUAGUUAAACUGAAGGAGCGAGAAUAAUCUCAGGUAGGUCGCAGACAUGAGGAUCACCCAUGUAGAUGG [Same State Arginine A GF16] | 0.047 µM | 0.129 µM | 0.068 µM | 0.122 µM | 0.0888 µM
36 | ACGAACGCACCUGAGGAUCACCCAGGUGAUACCAGCCUGGAAACAGGCCCUUGGCAGCACCUAAAAUAAAGGUAACGUUCGAAUA [TheoAX7 #MicroSwitchBubble #AlternativeMS2] | 0.0411 µM | 0.165 µM | 0.0619 µM | 0.0742 µM | 0.173 µM
37 | CGACACAUGAGGAUCACCCAUGUAAUGACGCGAGGACCGGUACGGCCGCCACUCGCAUGCCAAUGAGCGCAUGCGGCCUGGGUAU [Exclusion Tryp A GF6] | 0.0175 µM | 0.0236 µM |  |  | 0.0195 µM
38 | AAGGAACAUGAGGAUCACCCAUGUACCGAAGGAGCGGCAGAGAUGCCAGGUAGGUCGCGGUACUUGCCGGGUCAUUCAUGCAGAG [Arraiste] | 0.0391 µM | 0.0306 µM | 0.0239 µM | 0.0263 µM | 0.0328 µM
